The values that follow come from a protein production outcome set (Wang et al. 2014).

This series is described as follows: label from the status in PepcDB records.
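Also: failed if final PepcDB status was selected cloned or expressed and not failed if soluble or beyond.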

As to “MQTTAAAQERYTRTAIFLHWCMTAMIVGLIGLGFYMGQQPPSPEKYALYELHKSLGVVTVLLLFARFIWRAANPPPELPTAYSQLLRTASHLGHFALYVLMFAVPVSGWVMSAAYGRPASLFGVPIPPPVTKSEDLAELWGTIHFALGSALALVIAGHTLFALKHHFIDKDGLLWRMWVRCP”, the protein production entry is recorded as “failed”.

Take “MQVEQRTLNTAAHPFQITAYWLDQISDFETAVDYPIMIICPGGGFTYHSGREEAPIATRMMAAGMHTVVLNYQLIVGDQSVYPWALQQLGATIDWITTQASAHHVDCQRIILAGFSAGGHVVATYNGVATQPELRTRYHLDHYQGQHAAIILGYPVIDLTAGFPTTSAARNQITTDARLWAAQRLVTPASKPAFVWQTATDESVPPINSLKYVQAMLQHQVATAYHLFGSGIHGLALANHVTQKPGKDKYLNDQAAIWPQLALRWLQEQGLLAGNYLEHHHHHH”: the protein production result is reported as “not failed”. As for “MQVNIILLAAGKGQRFQSSSPNKIGCATIKQLARINDKPLIVHSIDKLQPLLKNAYVHNFFVTLGANKNAIQTVLPQDISVIASQHWAEGMGHTLAESVHSIKATSSHVLVALADQALITTEHYQELLSASKEQPNKIIATLCEGQLMAPAIFPEKYFPLLVKIQGDKGAGKLLLQHAKKADAITCEDAKIDIDTFSDLERVRQHLEYALQDNQQSSL”, the entry is “failed”.

In the case of “MQVRTLTPDDLPQACALCMDAFMQAVAPTLSAQGIETFTQVSAPQAFAERMQGDNLMLACFVEGAIAGLIELKEGRHIAMLFIAPGLQRQGIGKRLMNAALEHASAEVVTVKASLSSVPAYQRYGFTLAGDVGEFAGLVYQPMEKRLPTQPALEHHHHHH”, the protein production entry was “not failed”. Consider “MQWDPGGATESRSKLYIYLRFLRIEQVFFSLPMAYMGAFLAIREIPPIQVLILMFFSLFFLRTAGMTNDNLADREIDAMNPRTKSRPLVTGKITVREAKLLITISLIGFFITAYLINLYALIFAPIVALIVMSYPYMKRYTAFANYHLASIQGLAVFSGAVASLGLYAKSFTQLVTGIPWLFVISTVFWAVGFDLYNHIPDADFDKKMGLHSFAVLLGDRALMFAGLNQLISVLLALFGDIQFNLGIIAYIATILHGLIMGYAYYSATRGNFGRAFYYNIYSSIVLGIGIIIDIIV”, for which the protein production result is “failed”.

As to “MQWRFCLTTVLGVVLSFSPSVKVQAQGLESLTYYTENYPPLNFAKEDGKPAGIAVDLLLEAAAAVNVTLNLDQIFVQPWPRSYRSALLKQDGVLFSTTRTTHRENLFNWVGPIADIKVVVLARKSSQIKVNDPIELGNYRIGVIRDDIGEQQLLQLGVPRESMVEGSTVSSLAEQLLKKRIDLLAYDERTALWWMSQDSYPVEEFETVYVLMQGSLYYAFNKNIDKSVLNDLQKGIELIKNSVNENGVTRYQAILDKY”, the protein production entry is recorded as “failed”. Consider “MQYIKIHALDNVAVALADLAEGTEVSVDNQTVTLRQDVARGHKFALTDIAKGANVIKYGLPIGYALADIAAGEHVHAHNTRTNL”, for which the protein production entry is given as “not failed”. With “MRAADAPDAPLPEDRRNAPVWFAHDLEAPRCTALFPRLADRRPALVVVGGFLGSGKTTFLNNCIEYHRARERFVAVIQNEVGATGVDARLMGDGAEVLALDEGCVCCSLAGSLAGGIRAITADFTPEVILLETTGLANPLNLLAELDTLRDMVRLDAVVTVVDAANIVPTLRDSDIARDQIRGADIIVCNKCDTVDETGRAALRATLTGLNGRAALHETSFGRIHPSLFMALEGERPPRGLMPAPHGTHATHADEGFAAVRLFFSGTIDEAALAPLLQQCPGAPFRIKGIVRVTDDEAPRLVQCVGARCEVERLDGGFEGTPFLVFIGRNPDETALLEHWAALGATAEPPAPQAEADTQPAQATKSASGGQSSDATRGCHDHHLEHHHHHH”, the protein production entry is listed as “failed”.

Turning to “MRAERGPPKQTISLPVALRKDRDMSEIAPQNRRIRPAAIVVLFLTIALTGCLLALGTWQVQRLFWKLDLIERVDVRAHAEPVDAPAASDWPALGNPSDYEYRRVKLTGTLLNDREVQVYTVTDLGPGYWVMTPLRRDDGSSIIVNRGFVPSDRRDPSSRTGGEPTGNVEIVGLMRAPETGGLFLRTNDPANGRWYSRNIPQITQASGLSDVAPFYVDADATPNPGGLPVGGKTMLTFPNNHLSYAVTWYILAAMVVAAGWYVLRNLNAPKSKRDAD”, the protein production entry is given as “failed”. “MRAFIAIDVSESVRDALVRAQDYIGSKEAKIKFVERENFHITLKFLGEITEEQAEEIKKILEKIAKKYKKHEVNVRGIGVFPNPNYVRVIWAGVENDEIIKKIAKEIDDELAKLGFKKEGNFVAHITLGRVKFVKDKLGLAMKLKELANEDFGSFIVEAIELKKSTLTPKGPIYETLARFELSE”: the protein production entry is “not failed”. For “MRAGVREVIDDSSERTLQQVIERAFLRTKGAIIRQKRVFGFVSAKGGDGGSCIAANFAFALSQEPDIHVLAVDISLPFGDLDMYLSGNTHSQDLADISNASDRLDKSLLDTMVQHISPSLDLIPSPATFEKIVNIEPERVSDLIHIAASFYDYIIVDFGASIDHVGVWVLEHLDELCIVTTPSLQSLRRAGQLLKLCKEFEKPISRIEIILNRADTNSRITSDEIEKVIGRPISKRIPQDEDAMQESLLSGQSVLKVAPKSQLSKTIVDWALHLNGVSRPNKRSIWERLKIK”, the protein production entry was “not failed”.

In the case of “MRAISQYIAIFVITLTLSGCFFQNSDDQRWELAPQGTTSFALSRDARFALFFVKNDSIPEKNESQVKSGLHFWDLVENKELTFFGDQDQDKSTVSYIRISDNSRFAITATQTNFAVWDLGMGISEGLWSISDGIIRDVAIASNGQQVLLGLSNGKAIYINLATGRRLEFLAHREKVNSVALSANGKFALSGGNDYFAYLWDTETGQILRTFEHEKRVSRTALQRDGKYAFTADGGNEGFIWDLKTGEKITELSTLARQQVYSTARFSDDGQLLVTGSPSGTVNVWNTTSGKKLEQWRSEPLKDARPPTAVVYDVAIDKQQRVVSATSAGIAQAWLIE”, the protein production entry was “failed”. As for “MRAKKRKFLQKEELSKLLQSLDMSQIGFGWFVMLAAKTGMRYAEALAITPADFDWTAQTISINKTWDYKYNKGFAKTKTLSSVRTIKIDWQIVGQFKPLIKDFPEDEPIFVEKFGDGTYKRQFNSTINNFLAVKCNETGITQISFHALRHTHASVLLAEGVSIHTISARLGHADVGVTQETYAHVLDELQKKDDQKMLSVLMQIALEHHHHHH”, the entry is “not failed”; as for “MRALRGWPLAWFLLALAFAIRLLSLGSYPLMDTTEARYGEVARKMAELGDWITPWYDVGVPFWGKPPLAFWLSAGGQLLLGANEFASRLPHWLLGVLVLWLVWDWQAREDRRQARIACVLLGSSALFFVASGAVMTDMALALALVLAMRGFWLGLHGAEGIRRREGWLMFLGLGLGLLAKGPLTLILAGLPIGLWALLEWRWRALWRGLPWIRGSLLMLLVAAPWYLLAELKTPGFLEYFLLGEHWQRFVTAGWDGDRYGNAHAYPYGSVWLFLLAAAFPWSLWLPLLLWLGWRQRGEVVDGVASRRRYWLFWGLAPCLFFTFAGNVLWTYVLPGLPALALLAADLLRAPLARSAWLRRGGLACLALTPLLFALFLGSLLLGSRAEQKSTAALLASDAGWRERPLVFWPKRPYSAVFYSGGRAQRAEDSELAGWLRRDALLAIRSRSFGALPDEVRQRLRCRPPVGQYQLCQGVAPPG”, “failed”.

On to “MRAMSKFSRIGLAGVVGAALHAILANHLAPAVQQRLPIGRVSLTFFLALLSALAAGAVLARLAPRARVAALAVAALAFLLLAAATTWLQQCTPAQLAAIDAATPLGCNLGLYNRARAHLPPDGRPAELAPGVWFDRHGLSYACLPPEAQATHLRVALADYALALVGMSLGALLGARQRRRRDQD”, for which the protein production entry was “failed”.

Regarding “MRASKASADESLNVFPVPADSPGSPIAGANGVPKEISLPGEARPFHLANSAFWPYVLLFVSSLTLSGCAGMVDMVRDVTRSLADIDVSGITDLFGSGEVQMSPEQIAQLEVIPSTRPGWEASVEESPAAVFLPVFGDGAVYAGGPDGRLVRFDPASGKASGVIDTKHPLAGGIGTGDGMLLVGTFKGEVLAFDEKSGKPKWTANLSTEVLSPPHAGMGVVVVRTGDGRIYGLDSESGKRKWVYQGATPSLTVRSFAGALIADDRVYAGFAGGRLVALNLSNGSLVWEAMVSRPRGATELERISDVTSLPVLDEQQVCAVAYQGRIACFDITAGNQIWTRDVSSNAGLAMDDNYVYVSENRGGIVAYDKRDGTSIWAQDLLNGLKLSAPLVHGARIVVGDSQGYVNFIRKDNGAIIARSGTDESAITARPISLPNGIAVQTRKGGVFAFGA”, the protein production result was “failed”. As for “MRAYQIMSRQVVSIRPEAPITDAIKVMLAHHISGLPVVDSADNLVGIICESDFLRRSEIGTEHERNRLLSLLLGAERVASEFVKERGRKVEQVMTRQPVTTNEQAPLDEVADVMERRHLNHIPVMRADRIVGIITRSDFLSAVAGPLTGASGYSGSDNQLRRAVLAALAKTPWQPIGLNVRVRDGAVSLRGVIRGESAHRAAIVACENVPGVLRVDDRLCVQPSRPDPEDDYGGGDFVSLQMEPSTLDDEPL”, the entry is “failed”; as for “MRDGVSPEQPKVSVIMPVRDGERWVAEAIRSVQSQTFRDFELLVIDDGSADATPAILAEAAAADPRIFVLTQHRDGLVAGLNRGLAAARAPLIARLDADDIALPDRLARQVDYMTTHPAVVLLGGWATIVDENGQPKGRDMRPNPNDLRATLMKKSPFIHPTVMFRAEAARRVGGYHAAFEAGEDYDFWLRLADIGEVAILPELLIRYREHSASVTRTRQLRQIYSARLAKLAAAARQAGQPDPSAPLTTPPDWHDASPGPFERDSSRLFRMLELADPAVAARIAPSAIDLNAITSQLGTLTAGERKFAQAALLNLLRANKLPSLAARWSAVFLLVRLGPLKAIKAARQLRNR”, “failed”; as for “MRDLVSCFSENSINVTHPLSISSSSSSCSKYSTNNVCISPSLIPSIQTSITSIYRITLSKHLIIKVTWCNPHNNNGLSISVASADQNPSTTLKLNTSSRFFRKKKGNKSVDSDLGKIEVFWDLSSAKYDSNLCGPEPINGFYVIVLVDGQMGLLLGDSSEETLRKKGFSGDIGFDFSLVSRQEHFTGNNTFYSTKVRFVETGDSHEIVIRCNKETEGLKQSNHYPVLSVCIDKKTVIKVKRLQWNFRGNQTIFLDGLLVDLMWDVHDWFFSNQGACGRAVFMFRTRNGLDSSRLWLEEKIVKKDQQDKLDFSLFIYACKT”, “failed”.

“MRDRVRWRVLSLPPLAQWREVMAALEVGPEAALAYWHRGFRRKEDLDPPLALLPLKGLREAAALLEEALRQGKRIRVHGDYDADGLTGTAILVRGLAALGADVHPFIPHRLEEGYGVLMERVPEHLEASDLFLTVDCGITNHAELRELLENGVEVIVTDHHTPGKTPPPGLVVHPALTPDLKEKPTGAGVAFLLLWALHERLGLPPPLEYADLAAVGTIADVAPLWGWNRALVKEGLARIPASSWVGLRLLAEAVGYTGKAVEVAFRIAPRINAASRLGEAEKALRLLLTDDAAEAQALVGELHRLNARRQTLEEAMLRKLLPQADPEAKAIVLLDPEGHPGVMGIVASRILEATLRPVFLVAQGKGTVRSLAPISAVEALRSAEDLLLRYGGHKEAAGFAMDEALFPAFKARVEAYAARFPDPVREVALLDLLPEPGLLPQVFRELALLEPYGEGNPEPLFLLFGAPEEARRLGEGRHLAFRLKGVRVLAWKQGDLALPPEVEVAGLLSENAWNGHLAYEVQAVDLRKPEALEGGIAPFAYPLPLLEALARARLGEGVYVPEDNPEGLDYARKAGFRLLPPEEAGLWLGLPPRPVLGRRVEVALGREARARLSAPPVLHTPEARLKALVHRRLLFAYERRHPGLFSEALLAYWEVNRVQEPAGSP”: the protein production result is reported as “not failed”. As for “MRDTLPEWYKTKKNICDQMTEEINLWGYDMIETPTLEYYETVGVVSAILDQQLFKLLDQQGNTLVLRPDMTAPIARLVASSLKDRAYPLRLAYQSNVYRAQQNEGGKPAEFEQLGVELIGDGTASADGEVIALMIAALKRAGLSEFKVAIGHVGYVNALLMDVVGNEQRADRLRRFLYEKNYVGYREHVKSLNLSTIDKSRLMNLLSLRGGRAAIEEARGLIQTEKGKTALAEMTKLYEVLESYGASEYVKFDLTLVLHMSYYTGVVFEGYGNRLGVPLCSGGRYDELLSKFHRPAQATGFGVRIDLLVEALNGEIISN”, the entry is “not failed”.
